{"source": "paper PMC1282572", "about": "“Avidin related protein 2 shows unique structural and functional features among the avidin protein family” (BMC Biotechnology, 2005)", "molecular_target": "the molecule itself", "experiment": "SEC; FPLC gel filtration, Superdex HR 10/30 column, 50 mM NaCO3 (pH 11.0), 150 mM NaCl; calibrated with IgG, BSA and ovalbumin; oligomeric state (tetramer)"}
{"protein": "AVR6(C58S), produced in E. coli (natural protein, chicken, checked by ESI-MS on AVR2-b only; avidin related protein 6 (AVR6), chicken, with C58S; also called AVR6-b) QTVARKCSLTGEWDNNLGSIMTIGAVNDNGEFNGTYITAVADNPGNIKLSPLLGIQHKRASQPTFGFTVHWNFSESTSVFVGQCFVDRSGKEVLKTKWLQRLAVDDISDDWKATRVGYNNFTRQRTVEE", "values": [{"measurement": "stoichiometry N", "value": 4}]}
{"protein": "AVR2-b (AVR2 produced in E. coli) (natural protein, chicken, three additional residues left at the N-terminus after cleavage of the bacterial OmpA signal peptide; avidin related protein 2 (AVR2), chicken; expected Mr of the product 14307.8 Da; Not glycosylated (bacterial expression); Crystallised in complex with D-biotin) QTVARKCSLTGEWDNDLGSIMTIGAVNDNGEFDGTYITAVADNPGNITLSPLLGIQHKRASQPTFGFTVHWNFSESTSVFVGQCFVDRSGKEVLKTKWLQRLAVDDISDDWIATRVGNNDFTRQHTVEE", "values": [{"measurement": "stoichiometry N", "value": 4}]}
{"protein": "Avidin related protein 2 (AVR2), produced in insect cells (natural protein, chicken, UniProt P56732 25-150, looked up, glycosylated (two potential glycosylation sites; both utilized to some extent), avidin related protein 2 (AVR2), chicken; The crystal structure PDB 1WBI is of the E. coli form AVR2-b) ARKCSLTGEWDNDLGSIMTIGAVNDNGEFDGTYITAVADNPGNITLSPLLGIQHKRASQPTFGFTVHWNFSESTSVFVGQCFVDRSGKEVLKTKWLQRLAVDDISDDWIATRVGNNDFTRQHTVEE", "values": [{"measurement": "stoichiometry N", "value": 4}]}
{"protein": "AVR2(I109K) (natural protein, chicken, UniProt P56732 25-150, looked up, avidin related protein 2 (AVR2), chicken, with I109K) ARKCSLTGEWDNDLGSIMTIGAVNDNGEFDGTYITAVADNPGNITLSPLLGIQHKRASQPTFGFTVHWNFSESTSVFVGQCFVDRSGKEVLKTKWLQRLAVDDISDDWKATRVGNNDFTRQHTVEE", "values": [{"measurement": "stoichiometry N", "value": 4}]}
{"protein": "AVR4 (carries C122S), produced in insect cells (natural protein, chicken, UniProt P56734 25-150, looked up, avidin related protein 4 (identical to AVR5), chicken, with C122S; also called AVR5 (AVR4 is identical to AVR5)) ARKCSLTGKWTNNLGSIMTIRAVNSRGEFTGTYLTAVADNPGNITLSPLLGIQHKRASQPTFGFTVHWNFSESTTVFTGQCFIDRNGKEVLKTMWLLRSSVNDISYDWKATRVGYNNFTRLSTVEE", "values": [{"measurement": "stoichiometry N", "value": 4}]}
{"protein": "AVR4(K109I) (also carries C122S), produced in insect cells (natural protein, chicken, UniProt P56734 25-150, looked up, avidin related protein 4 (identical to AVR5), chicken, with K109I and C122S; An E. coli form, AVR4(K109I)-b, was also made) ARKCSLTGKWTNNLGSIMTIRAVNSRGEFTGTYLTAVADNPGNITLSPLLGIQHKRASQPTFGFTVHWNFSESTTVFTGQCFIDRNGKEVLKTMWLLRSSVNDISYDWIATRVGYNNFTRLSTVEE", "values": [{"measurement": "stoichiometry N", "value": 4}]}
